Measured values: patent US9175305B2, “Mutant hydroxyphenylpyruvate dioxygenase polypeptides and methods of use” (Syngenta Participations AG, priority 2009, dated 2015)

Experiments:
[1] = catalytic activity and herbicide resistance of mutants of SEQ ID NO:14 in extracts; assay type: biochemical, Avena sativa
Excerpt: These further mutations can all be optionally combined with the resistance conferring mutations to produce catalytically active variants of HPPD herbicide resistant enzymes of the current invention.

[2] = Km and kcat of expressed HPPDs (HPLC/UV quantitation of homogentisate); assay type: biochemical, Avena sativa; conditions: for V217I, L271I, L271V, V258M, A326R estimated from initial rates in cell extracts, pH 7.0, 25° C., 120 μM HPP
Method: The assay solution was transferred to Chromacol 03-CVG HPLC vials, sealed and the amount of homogentisate formed in a 40 μl aliquot determined by injection onto a reverse phase Aqua C18 5μ 75×4.6 mm HPLC column running 5.5% acetonitrile 0.1% TFA (Buffer A) at 1.5 ml/min. The column was eluted at 1.5 ml/minute using a 2 minute wash in buffer A, followed by a 2 minute wash in a 30/70 mixture of buffer A and 100% Acetonitrile, and a further 3.5 minute wash in buffer A. The elution of homogentisate was monitored by UV at 292 nm and the amount formed in each reaction quantified by comparison with a standard calibration curve.
Km and Vmax values were determined (for example FIG. 1) using a non linear least squares fit using Grafit 4™ software (Erithacus Software, Middlesex, UK). Kcat values were determined by dividing the maximum rate, Vmax expressed in nmol/second by the number of nmoles of HPPD enzyme (based on the concentration determined by active-site titration).
Experiments were carried out as described for Table 4. ‘Sulc’ denotes sulcotrione and ‘nd’ means ‘no data’. For V217I, L271I, L271V, V258M and A326R, the relative values of kcat were estimated from comparisons of the initial rates in cell extracts of similarly prepared and expressed HPPDs in conventional enzyme activity assays at pH 7.0, 25° C. and at a substrate concentration of 120 μM HPP.

Row | Molecule | catalytic activity and resistance to sulcotrione relative to control, unmutated SEQ ID NO:14 [1] | Rate: kcat relative to non-mutated HPPD SEQ ID NO:14 [2]
1 | T372S: T372S mutant of SEQ ID NO:14 (protein, mutant HPPD polypeptide) MPPTPATATGAAAAAVTPEHAARSFPRVVRVNPRSDRFPVLSFHHVELWCADAASAAGRFSFALGAPLAARSDLSTGNSAHASLLLRSGALAFLFTAPYAPPPQEAATAATASIPSFSADAARTFAAAHGLAVRSVGVRVADAAEAFRVSVAGGARPAFAPADLGHGFGLAEVELYGDVVLRFVSYPDETDLPFLPGFERVSSPGAVDYGLTRFDHVVGNVPEMAPVIDYMKGFLGFHEFAEFTAEDVGTTESGLNSVVLANNSEAVLLPLNEPVHGTKRRSQIQTYLEYHGGPGVQHIALASNDVLRTLREMRARTPMGGFEFMAPPQAKYYEGVRRIAGDVLSEEQIKECQELGVLVDRDDQGVLLQIFSKPVGDRPTFFLEMIQRIGCMEKDEVGQEYQKGGCGGFGKGNFSELFKSIEDYEKSLEVKQSVVAQKS | neutral mutations | 
2 | I299M: I299M mutant of SEQ ID NO:14 (protein, mutant HPPD polypeptide) MPPTPATATGAAAAAVTPEHAARSFPRVVRVNPRSDRFPVLSFHHVELWCADAASAAGRFSFALGAPLAARSDLSTGNSAHASLLLRSGALAFLFTAPYAPPPQEAATAATASIPSFSADAARTFAAAHGLAVRSVGVRVADAAEAFRVSVAGGARPAFAPADLGHGFGLAEVELYGDVVLRFVSYPDETDLPFLPGFERVSSPGAVDYGLTRFDHVVGNVPEMAPVIDYMKGFLGFHEFAEFTAEDVGTTESGLNSVVLANNSEAVLLPLNEPVHGTKRRSQIQTYLEYHGGPGVQHMALASNDVLRTLREMRARTPMGGFEFMAPPQAKYYEGVRRIAGDVLSEEQIKECQELGVLVDRDDQGVLLQIFTKPVGDRPTFFLEMIQRIGCMEKDEVGQEYQKGGCGGFGKGNFSELFKSIEDYEKSLEVKQSVVAQKS | neutral mutations | 
3 | G254S: G254S mutant of SEQ ID NO:14 (protein, mutant HPPD polypeptide) MPPTPATATGAAAAAVTPEHAARSFPRVVRVNPRSDRFPVLSFHHVELWCADAASAAGRFSFALGAPLAARSDLSTGNSAHASLLLRSGALAFLFTAPYAPPPQEAATAATASIPSFSADAARTFAAAHGLAVRSVGVRVADAAEAFRVSVAGGARPAFAPADLGHGFGLAEVELYGDVVLRFVSYPDETDLPFLPGFERVSSPGAVDYGLTRFDHVVGNVPEMAPVIDYMKGFLGFHEFAEFTAEDVGTTESSLNSVVLANNSEAVLLPLNEPVHGTKRRSQIQTYLEYHGGPGVQHIALASNDVLRTLREMRARTPMGGFEFMAPPQAKYYEGVRRIAGDVLSEEQIKECQELGVLVDRDDQGVLLQIFTKPVGDRPTFFLEMIQRIGCMEKDEVGQEYQKGGCGGFGKGNFSELFKSIEDYEKSLEVKQSVVAQKS | neutral mutations | 
4 | G254A: G254A mutant of SEQ ID NO:14 (protein, mutant HPPD polypeptide) MPPTPATATGAAAAAVTPEHAARSFPRVVRVNPRSDRFPVLSFHHVELWCADAASAAGRFSFALGAPLAARSDLSTGNSAHASLLLRSGALAFLFTAPYAPPPQEAATAATASIPSFSADAARTFAAAHGLAVRSVGVRVADAAEAFRVSVAGGARPAFAPADLGHGFGLAEVELYGDVVLRFVSYPDETDLPFLPGFERVSSPGAVDYGLTRFDHVVGNVPEMAPVIDYMKGFLGFHEFAEFTAEDVGTTESALNSVVLANNSEAVLLPLNEPVHGTKRRSQIQTYLEYHGGPGVQHIALASNDVLRTLREMRARTPMGGFEFMAPPQAKYYEGVRRIAGDVLSEEQIKECQELGVLVDRDDQGVLLQIFTKPVGDRPTFFLEMIQRIGCMEKDEVGQEYQKGGCGGFGKGNFSELFKSIEDYEKSLEVKQSVVAQKS | neutral mutations | 
5 | E416Q: E416Q mutant of SEQ ID NO:14 (protein, mutant HPPD polypeptide) MPPTPATATGAAAAAVTPEHAARSFPRVVRVNPRSDRFPVLSFHHVELWCADAASAAGRFSFALGAPLAARSDLSTGNSAHASLLLRSGALAFLFTAPYAPPPQEAATAATASIPSFSADAARTFAAAHGLAVRSVGVRVADAAEAFRVSVAGGARPAFAPADLGHGFGLAEVELYGDVVLRFVSYPDETDLPFLPGFERVSSPGAVDYGLTRFDHVVGNVPEMAPVIDYMKGFLGFHEFAEFTAEDVGTTESGLNSVVLANNSEAVLLPLNEPVHGTKRRSQIQTYLEYHGGPGVQHIALASNDVLRTLREMRARTPMGGFEFMAPPQAKYYEGVRRIAGDVLSEEQIKECQELGVLVDRDDQGVLLQIFTKPVGDRPTFFLEMIQRIGCMEKDEVGQEYQKGGCGGFGKGNFSQLFKSIEDYEKSLEVKQSVVAQKS | neutral mutations | 
6 | V258M: V258M mutant of HPPD SEQ ID NO:14 (protein, mutant HPPD polypeptide) MPPTPATATGAAAAAVTPEHAARSFPRVVRVNPRSDRFPVLSFHHVELWCADAASAAGRFSFALGAPLAARSDLSTGNSAHASLLLRSGALAFLFTAPYAPPPQEAATAATASIPSFSADAARTFAAAHGLAVRSVGVRVADAAEAFRVSVAGGARPAFAPADLGHGFGLAEVELYGDVVLRFVSYPDETDLPFLPGFERVSSPGAVDYGLTRFDHVVGNVPEMAPVIDYMKGFLGFHEFAEFTAEDVGTTESGLNSMVLANNSEAVLLPLNEPVHGTKRRSQIQTYLEYHGGPGVQHIALASNDVLRTLREMRARTPMGGFEFMAPPQAKYYEGVRRIAGDVLSEEQIKECQELGVLVDRDDQGVLLQIFTKPVGDRPTFFLEMIQRIGCMEKDEVGQEYQKGGCGGFGKGNFSELFKSIEDYEKSLEVKQSVVAQKS | neutral mutations | 1
7 | V258I: V258I mutant of SEQ ID NO:14 (protein, mutant HPPD polypeptide) MPPTPATATGAAAAAVTPEHAARSFPRVVRVNPRSDRFPVLSFHHVELWCADAASAAGRFSFALGAPLAARSDLSTGNSAHASLLLRSGALAFLFTAPYAPPPQEAATAATASIPSFSADAARTFAAAHGLAVRSVGVRVADAAEAFRVSVAGGARPAFAPADLGHGFGLAEVELYGDVVLRFVSYPDETDLPFLPGFERVSSPGAVDYGLTRFDHVVGNVPEMAPVIDYMKGFLGFHEFAEFTAEDVGTTESGLNSIVLANNSEAVLLPLNEPVHGTKRRSQIQTYLEYHGGPGVQHIALASNDVLRTLREMRARTPMGGFEFMAPPQAKYYEGVRRIAGDVLSEEQIKECQELGVLVDRDDQGVLLQIFTKPVGDRPTFFLEMIQRIGCMEKDEVGQEYQKGGCGGFGKGNFSELFKSIEDYEKSLEVKQSVVAQKS | neutral mutations | 
8 | V258A: V258A mutant of SEQ ID NO:14 (protein, mutant HPPD polypeptide) MPPTPATATGAAAAAVTPEHAARSFPRVVRVNPRSDRFPVLSFHHVELWCADAASAAGRFSFALGAPLAARSDLSTGNSAHASLLLRSGALAFLFTAPYAPPPQEAATAATASIPSFSADAARTFAAAHGLAVRSVGVRVADAAEAFRVSVAGGARPAFAPADLGHGFGLAEVELYGDVVLRFVSYPDETDLPFLPGFERVSSPGAVDYGLTRFDHVVGNVPEMAPVIDYMKGFLGFHEFAEFTAEDVGTTESGLNSAVLANNSEAVLLPLNEPVHGTKRRSQIQTYLEYHGGPGVQHIALASNDVLRTLREMRARTPMGGFEFMAPPQAKYYEGVRRIAGDVLSEEQIKECQELGVLVDRDDQGVLLQIFTKPVGDRPTFFLEMIQRIGCMEKDEVGQEYQKGGCGGFGKGNFSELFKSIEDYEKSLEVKQSVVAQKS | neutral mutations | 
9 | V258K: V258K mutant of SEQ ID NO:14 (protein, mutant HPPD polypeptide) MPPTPATATGAAAAAVTPEHAARSFPRVVRVNPRSDRFPVLSFHHVELWCADAASAAGRFSFALGAPLAARSDLSTGNSAHASLLLRSGALAFLFTAPYAPPPQEAATAATASIPSFSADAARTFAAAHGLAVRSVGVRVADAAEAFRVSVAGGARPAFAPADLGHGFGLAEVELYGDVVLRFVSYPDETDLPFLPGFERVSSPGAVDYGLTRFDHVVGNVPEMAPVIDYMKGFLGFHEFAEFTAEDVGTTESGLNSKVLANNSEAVLLPLNEPVHGTKRRSQIQTYLEYHGGPGVQHIALASNDVLRTLREMRARTPMGGFEFMAPPQAKYYEGVRRIAGDVLSEEQIKECQELGVLVDRDDQGVLLQIFTKPVGDRPTFFLEMIQRIGCMEKDEVGQEYQKGGCGGFGKGNFSELFKSIEDYEKSLEVKQSVVAQKS | neutral mutations | 
